Test results as given in patent publication US20220251222A1, “IL-6Ralpha/IL-8R BISPECIFIC BINDING AGENTS FOR INHIBITING CANCER CELL MIGRATION” (The Johns Hopkins University, priority 2019, published 2022).

B1: IL-6Rα ECD: recombinant human IL-6Rα extracellular domain, residues 89-303, biotinylated (protein)
chain: LLVDVPPEEPQLSCFRKSPLSNVVCEWGPRSTPSLTTKAVLLVRKFQNSPAEDFQEPCQYSQESQKFSCQLAVPEGDSSFYIVSMCVASSVGSKFSKTQTFQGCGILQPDPPANITVTAVARNPRWLSVTWQDPHSWNSSFYRLRFELRYRAERSKTFTTWMVKDLQHHCVIHDAWSGLRHVVQLRAQEEFGQGEWSEWSPEAMGTPWTESRSPPLNDIFEAQKIEWHEHHHHHH
B2: 10H2: anti-IL-8RB monoclonal antibody, expressed as hIgG1 (antibody, V domains shown)
VH: EVQLVETGGRLVQPKGSLKLSCAVSGITFKTNAMNWVRQAPGKGLEWVARIRTKSYNYATYYADSVKDRFTISRDDSQSILYLQMNNLKTEDTAMYHCVREGRWGQGTLVTVSA
VL: QAVVTQESALTTSPGETVTLTCRSSTGAVTTSNYANWVQEKPDHLFTGLIGGTNNRPPGVPARFSGSLIGDKAALTITGAQIEDEAIYFCALWYSNHLVFGGGTKLTVL

Legend:
Human IL-6 = biological target: T1, Human IL-6 (Homo sapiens, UniProt P05231); test: Yeast cell surface affinity titration of IL-6Rα ECD on IL-6-displaying yeast; assay type: binding; details: 2 hours at room temperature, flow cytometry; read-out: KD of soluble IL-6Rα ECD on IL-6-displaying yeast
T1 construct: Human IL-6 (residues 3-185) was cloned into the pCT302 vector; made in house; host or cells: yeast (surface display)
Method: Human IL-6 (residues 3-185) was cloned into the pCT302 vector and presented on the surface of yeast, as described previously. (See Boder E T, Wittrup K D. Yeast surface display for screening combinatorial polypeptide libraries. Nat Biotechnol. 1997 June; 15(6):553-557. PMID: 9181578). Yeast displaying human IL-6 were incubated in PBSA containing serial dilutions of recombinant IL-6Rα ECD for 2 hours at room temperature. Cells were then washed and stained with a 1:200 dilution of Alexa647-conjugated streptavidin (Thermo) in PBSA for 15 min at 4° C. After a final wash, cells were analyzed for antibody binding using a CytoFLEX flow cytometer (Beckman Coulter).

IL-8R = biological target: T2, IL-8R (Homo sapiens, UniProt P25025); test: Cell surface binding on IL-6Rα−/IL-8R+ HEK 293T cells (flow cytometry); details: 2 hr at 4° C.
T2 construct: expressed in transfected cells; host or cells: HEK 293T, lentiviral transduction (pCDH backbone)
T2 sequence (P25025 1-360): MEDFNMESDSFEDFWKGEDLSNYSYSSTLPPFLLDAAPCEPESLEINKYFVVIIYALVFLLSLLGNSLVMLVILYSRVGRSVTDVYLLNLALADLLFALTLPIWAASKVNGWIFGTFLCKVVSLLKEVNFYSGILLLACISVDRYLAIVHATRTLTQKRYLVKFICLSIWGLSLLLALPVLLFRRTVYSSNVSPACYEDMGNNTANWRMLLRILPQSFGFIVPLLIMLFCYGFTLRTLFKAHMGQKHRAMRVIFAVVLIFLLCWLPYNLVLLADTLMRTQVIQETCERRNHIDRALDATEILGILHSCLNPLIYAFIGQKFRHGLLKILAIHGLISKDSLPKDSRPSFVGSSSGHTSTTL
From the text: GeneJuice (Sigma Aldrich) was used as the transfection reagent.
Mean fluorescence intensity (MFI) of unstimulated cells was subtracted.

[1] = test system: IL-6-mediated phosphorylation of STAT3; test: IL-6 signaling inhibition assay (STAT3 phosphorylation) in HepG2 cells; assay type: cell-based, human; details: IL-6 10 nM, 20 min at 37° C.
Method: HepG2 cells were then fixed with 1.6% PFA, permeabilized with methanol and incubated with 1:50 dilution of Alexa Fluor 647 conjugated anti-pSTAT3 antibody (BD Biosciences, clone 4/P-STAT3) in PBSA for 2 h at room temperature. […] IC50 values were calculated using a first order logistic fitting models in GraphPad Prism data analysis software. Mean fluorescence intensity (MFI) of unstimulated cells was subtracted. Experiments were conducted in triplicate and performed twice times with similar results.

human IL-6Rα ECD = biological target: T3, human IL-6Rα ECD (Homo sapiens, UniProt P08887); test: Bio-layer interferometry (BLI) binding to immobilized IL-6Rα ECD; details: immobilized biotinylated IL-6Rα ECD, PBSA, 25° C., equilibrium titration
T3 construct: residues 89-303 of the mature protein; hexahistidine (C); made in house; host or cells: HEK 293F
T3 sequence (P08887 108-322): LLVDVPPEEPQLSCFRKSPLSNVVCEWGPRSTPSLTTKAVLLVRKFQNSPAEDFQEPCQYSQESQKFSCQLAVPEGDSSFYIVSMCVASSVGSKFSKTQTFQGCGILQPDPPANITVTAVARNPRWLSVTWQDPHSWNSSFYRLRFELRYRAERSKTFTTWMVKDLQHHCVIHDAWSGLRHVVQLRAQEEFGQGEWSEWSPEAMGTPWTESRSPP
Method: Biotinylated human IL-6Rα ECD was immobilized to streptavidin-coated tips for analysis on an Octet® Red96 BLI instrument (ForteBio). Less than 5 signal units (nm) of receptor was immobilized to minimize mass transfer effects. Tips were exposed to serial dilutions of the anti-IL-6R antibody tocilizumab, the anti-IL-8R antibody 10H2, BS1, or BS2 in a 96-well plate for 300 s and dissociation was measured for 600 s. Surface regeneration for all interactions was conducted using 15 s exposure to 0.1 M glycine pH 3.0. Experiments were carried out in PBSA (phosphate-buffered saline [PBS] pH 7.3 plus 0.1% bovine serum albumin [BSA, Thermo]) at 25° C. Data was visualized and processed using the Octet® Data Analysis software version 7.1 (ForteBio). Equilibrium titration curve fitting and equilibrium dissociation constant (KD) value determination was implemented in GraphPad Prism software using a first-order logistic model. Experiments were reproduced two times with similar results.

IL-6/IL-6Rα interaction = biological target: T4, IL-6/IL-6Rα interaction (Homo sapiens, UniProt P08887); test: Yeast cell surface competition of IL-6/IL-6Rα binding; details: IL-6-displaying yeast, biotinylated IL-6Rα ECD 300 nM
T4 construct: residues 89-303 of the mature protein; hexahistidine (C); made in house; host or cells: HEK 293F (IL-6Rα ECD)
T4 sequence (P08887 108-322): T3 sequence (P08887 108-322)
Method: Approximately 1×10^5 human IL-6-displaying yeast per well were plated in a 96-well plate and washed with PBSA. Yeast cells were incubated with saturating concentrations of biotinylated human IL-6Rα (300 nM) and serial dilutions of unlabeled competitor antibody (either the anti-IL-6R antibody tocilizumab, the anti-IL-8R antibody 10H2, BS1, or BS2) in PBSA for 2 hours at room temperature. Cells were then washed and stained with a 1:200 dilution of Alexa647-conjugated streptavidin (Thermo) in PBSA for 15 min at 4° C. Cells were washed again and assessed for human IL-6Rα binding on a CytoFLEX flow cytometer (Beckman Coulter). Background-subtracted fluorescent signal as a fraction of receptor subunit binding in the absence of competitor antibody was plotted. Curves were fitted to a first order logistic model and half maximal inhibitory concentrations (IC50s) were computed using GraphPad Prism. Assays were performed in triplicate and repeated two times with consistent results.

IL-6 binding to IL-6Rα = biological target: T5, IL-6 binding to IL-6Rα (Homo sapiens, UniProt P08887); test: IL-6 cell surface binding inhibition on IL-6Rα+/IL-8R− HEK 293T cells; details: IL-6Rα+/IL-8R− 293 T cells, biotinylated IL-6 100 nM
T5 construct: expressed in transfected cells; host or cells: HEK 293T, lentiviral transduction (IL-6Rα+/IL-8R−)
T5 sequence (P08887 20-468): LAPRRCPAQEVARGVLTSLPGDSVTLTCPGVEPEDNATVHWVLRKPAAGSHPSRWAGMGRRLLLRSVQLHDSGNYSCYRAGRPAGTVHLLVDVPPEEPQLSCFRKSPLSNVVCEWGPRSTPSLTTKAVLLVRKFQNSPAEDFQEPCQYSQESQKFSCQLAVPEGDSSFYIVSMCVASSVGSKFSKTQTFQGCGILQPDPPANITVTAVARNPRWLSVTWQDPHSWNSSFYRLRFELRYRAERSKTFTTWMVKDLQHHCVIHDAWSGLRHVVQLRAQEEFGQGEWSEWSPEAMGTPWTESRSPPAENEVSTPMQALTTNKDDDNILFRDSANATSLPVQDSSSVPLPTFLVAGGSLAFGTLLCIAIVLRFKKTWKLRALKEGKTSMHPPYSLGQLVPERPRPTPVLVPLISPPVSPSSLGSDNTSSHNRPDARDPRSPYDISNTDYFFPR
Method: Cells were then washed and incubated with 1:200 dilution of Alexa Fluor 647-conjugated streptavidin (Fisher Scientific, cat #: S21374) in PBSA for 15 min at 4° C. […] Curves were fitted to a first-order logistic model and IC50 values were calculated using GraphPad Prism data analysis software. Mean fluorescence intensity (MFI) of unstimulated cells was subtracted. […]

T1 sequence (P05231 30-212): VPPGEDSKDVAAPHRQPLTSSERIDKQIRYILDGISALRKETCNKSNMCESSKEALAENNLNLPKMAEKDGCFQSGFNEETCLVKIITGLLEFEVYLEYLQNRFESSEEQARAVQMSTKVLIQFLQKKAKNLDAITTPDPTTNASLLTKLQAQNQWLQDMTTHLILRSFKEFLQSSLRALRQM

Molecule | Kd (Human IL-6) | KD, binding to IL-8R on cells (IL-8R) | IC50, inhibition of STAT3 phosphorylation [1] | binding affinity (KD) to IL-6Rα via BLI (human IL-6Rα ECD) | IC50, inhibition of IL-6/IL-6Rα binding (IL-6/IL-6Rα interaction) | IC50, competition with IL-6 binding to IL-6Rα (IL-6 binding to IL-6Rα)
B1 | 88 nM | – | – | – | – | –
B2 | – | only recognized IL-8R^+ cells | did not effect inhibition | did not engage IL-6Rα | did not compete | no inhibitory effects
